Reference: patent US20120301476A1 (TORAY INDUSTRIES, published 2012)

Key:
[1] = biological target: T1, recombinant human CAPRIN-1 protein having the amino acid sequence represented by SEQ ID NO: 2 (prepared in … (human, UniProt Q14444 1-709, limits assumed)); assay: SPR (BIACORE2000), CAPRIN-1 recombinant protein amine-coupled to CM5 chip, antibody as analyte
T1 construct: Expressed in E. coli from pET30a; the His-tag was cleaved off with enterokinase; also called CAPRIN-1 recombinant protein; CAPRIN-1 molecule
T1 sequence: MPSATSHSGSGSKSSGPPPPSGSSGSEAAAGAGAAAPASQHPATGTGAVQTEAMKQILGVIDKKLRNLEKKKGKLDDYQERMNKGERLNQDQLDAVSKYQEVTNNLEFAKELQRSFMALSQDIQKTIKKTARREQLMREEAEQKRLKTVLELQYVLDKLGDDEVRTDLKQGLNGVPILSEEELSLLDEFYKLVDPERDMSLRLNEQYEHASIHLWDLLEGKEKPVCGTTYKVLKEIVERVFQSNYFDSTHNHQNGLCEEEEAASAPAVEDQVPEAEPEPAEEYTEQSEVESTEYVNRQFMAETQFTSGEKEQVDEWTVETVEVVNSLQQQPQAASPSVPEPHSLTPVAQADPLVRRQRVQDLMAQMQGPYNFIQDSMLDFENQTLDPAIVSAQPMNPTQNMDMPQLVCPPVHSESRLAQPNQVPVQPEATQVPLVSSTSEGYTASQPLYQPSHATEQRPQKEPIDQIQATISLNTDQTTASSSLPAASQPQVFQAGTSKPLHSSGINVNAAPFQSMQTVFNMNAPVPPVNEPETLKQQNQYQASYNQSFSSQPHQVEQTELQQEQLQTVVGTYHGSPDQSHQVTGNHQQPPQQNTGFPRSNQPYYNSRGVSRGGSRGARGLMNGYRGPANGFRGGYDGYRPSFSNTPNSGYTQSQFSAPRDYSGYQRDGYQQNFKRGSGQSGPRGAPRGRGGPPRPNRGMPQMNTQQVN
Method: As a reference control (reference cell), a sensor chip with 20 μg/ml bovine serum-derived albumin immobilized thereto by the same method was used. A sensor chip to which the CAPRIN-1 molecule had been immobilized was set in BIACORE2000, 40 μL, each of the antibody solution (analyte) prepared to have a concentration (100, 80, 40, 20, 10, 5, or 2.5 μg/mL) was applied at a flow rate of 20 μL/minute, the surface plasmon resonance angle at the time of binding of an antibody to the CAPRIN-1 molecule immobilized on the sensor chip was measured, so that each RU value (Resonance Unit) was obtained. Next, a running buffer HBS-EP solution (GE) was applied and then the resonance angle upon dissociation of the antibody from the CAPRIN-1 molecule was measured, and then the RU value at this time was obtained. An antibody solution was similarly applied to a reference control (reference cell) sensor chip, the resonance angle at the time of immobilization reaction and the resonance angle at the time of dissociation reaction were measured, and thus the background RU values were obtained. […] Association rate constant (kₒₙ) and dissociation rate constant (koff) were found from the thus obtained RU value at each antibody concentration using affinity analysis software BIA evaluation, so that affinity constant Ka(=kₒₙ/koff) was calculated.

[2] = biological target: T2, peptide of SEQ ID NO: 69 (partial sequence in the polypeptide of SEQ ID NO: 37) (human); assay: ELISA on immobilised synthetic peptides
T2 peptide: QQPQAASPSVPE
Method: Each peptide was dissolved in 0.1M sodium carbonate buffer (pH 9.6) at a concentration of 30 μg/ml, added to a 96-well plate (Nunc, Product No. 436006) at 100 μl per well, and then left to stand at 4° C. overnight. The solution was discarded, 10 mM ethanolamine/0.1M sodium carbonate buffer (PH 9.6) was added at 200 μl per well, and then the plate was left to stand at room temperature for 1 hour. The solution was discarded, the plate was washed twice with PBS (PBST) containing 0.5% Tween20, so that the plate with each peptide immobilized thereto was prepared.
A cell culture supernatant containing the human-chicken chimeric monoclonal antibody (#1) and the mouse monoclonal antibodies (#2, #3, #4, #5, and #6) obtained in Example 4 (2) was added to the plate at 50 μl per well. After 1 hour of shaking at room temperature, the solution was removed, and then the plate was washed three times with PBST. Next, an HRP-labeled anti-human IgG (Invitrogen) antibody diluted 3000- to 4000-fold with PBST (a secondary antibody solution) was added to each well of the human-chicken chimeric monoclonal antibody and an HRP-labeled anti-mouse IgG (Invitrogen) antibody diluted 3000- to 4000-fold with PBST (a secondary antibody solution) was added to each well of the mouse monoclonal antibody, at 50 μl per well, and then the solution was removed, followed by six times of washing with PBST.
A TMB substrate solution (Thermo) was added at 100 μl per well, and the plate was left to stand for 15 to 30 minutes for coloring reaction. After color development, 1N sulfuric acid was added at 100 μl per well to stop the reaction and then absorbances at 450 nm and 595 nm were measured using an absorption spectrometer. As a result, the polypeptide of SEQ ID NO: 37 was identified as a CAPRIN-1 partial sequence that is recognized by all of the anti-CAPRIN-1 monoclonal antibodies #1 to #6. Furthermore, the peptide of SEQ ID NO: 69 was identified as a partial sequence in the above polypeptide of SEQ ID NO: 37, which is recognized by the monoclonal antibodies #1, #4, and #5. […]

Ka [1]: 4.6e+07 M⁻¹
binding result [2]: binds
B1: human-chicken chimeric antibody #1 having the chicken monoclonal antibody #1 variable region (antibody, V domains shown)
VH: AVTLDESGGGLQMSRGGLSLVCKASGFDFSSYQMNWIRQAPGKGLEFVAAINKFGNSTGHGAAVKGRVTISRDNGQSTVRLQLNNLRAEDTAIYFCTKHAYGYCGSGTWCAAGEIDAWGHGTEVIVSS
VL: QAASTQPSSVSANPGETVEITCSGGGSYSYGWFQQKSPGSAPVTVIYYNNKRPSDIPSRFSGSKSGSTGTLTITGVQADDEAVYYCGSGDSTDTAVFGAGTTLTVLG
notes: also called anti-CAPRIN-1 antibody #1; human-chicken chimeric monoclonal antibody (#1); not shown: human IgG1 H-chain constant region; human IgG1 L-chain constant region
